Assay [1] concerns the target T1, Soluble CD22 (PeproTech) (human, UniProt P20273 20-687, limits assumed).
T1 construct: Bought from PeproTech; also called sCD22; soluble CD22 purified from mammalian cells
T1 sequence: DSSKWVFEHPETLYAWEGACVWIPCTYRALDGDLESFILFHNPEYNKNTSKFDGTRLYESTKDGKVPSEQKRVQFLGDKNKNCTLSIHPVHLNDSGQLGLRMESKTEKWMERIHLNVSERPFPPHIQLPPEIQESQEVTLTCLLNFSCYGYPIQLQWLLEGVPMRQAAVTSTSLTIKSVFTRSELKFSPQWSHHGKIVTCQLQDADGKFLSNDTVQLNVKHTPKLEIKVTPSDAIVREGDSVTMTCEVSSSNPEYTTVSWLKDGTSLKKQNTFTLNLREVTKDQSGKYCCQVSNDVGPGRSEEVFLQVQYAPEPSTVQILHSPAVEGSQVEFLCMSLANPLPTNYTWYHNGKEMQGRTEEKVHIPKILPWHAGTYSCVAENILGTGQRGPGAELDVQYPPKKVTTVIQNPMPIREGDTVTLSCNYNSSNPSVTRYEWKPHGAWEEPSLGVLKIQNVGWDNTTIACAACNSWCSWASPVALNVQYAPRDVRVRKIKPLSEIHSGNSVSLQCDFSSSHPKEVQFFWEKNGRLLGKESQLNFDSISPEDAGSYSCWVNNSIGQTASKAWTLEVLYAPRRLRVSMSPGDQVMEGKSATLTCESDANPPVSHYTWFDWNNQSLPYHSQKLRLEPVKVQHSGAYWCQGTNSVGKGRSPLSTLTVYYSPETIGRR
Description: ELISA, Fab on coated soluble CD22. On the technique in general: In an ELISA, binding on a coated surface is turned into a signal by an enzyme label.
Description: (§1) CD22 or CD22-Fc in PBS was coated to a 96-well plate overnight at 4° C. The plate was then washed with PBST (PBS+0.05% Tween) and blocked with PBST supplemented with 5% dry milk. Fab, scFv or IgG1 diluted in PBST+milk was added to the wells. The Fab and scFv binding was detected using the anti-His-IgG-HRP (Qiagen) and the IgG1 binding was detected using the anti-human Fc-IgG-HRP (Sigma, St. Louis, Mo.). After washing, ABTS substrate (Roche, Mannheim, Germany) was added to each well and OD₄₀₅ was recorded after five to ten minutes.

Assay [2] addresses T1, Soluble CD22 (PeproTech). Description: ELISA, Fab on coated soluble CD22; reference Fab m971.
Assay [3] concerns the target T1, Soluble CD22 (PeproTech). The experiment in a line: ELISA, IgG1 on coated soluble CD22.
Description: as §1
Assay [4] has as its target T2, native, cell surface-associated CD22 on B lymphoma cell lines (Raji, BJAB, ST486) (human, UniProt P20273 20-847).
T2 construct: Endogenous CD22 of Raji, BJAB and ST486 cells; the cell line is named under assay; also called cell surface CD22; cell-associated CD22
T2 sequence: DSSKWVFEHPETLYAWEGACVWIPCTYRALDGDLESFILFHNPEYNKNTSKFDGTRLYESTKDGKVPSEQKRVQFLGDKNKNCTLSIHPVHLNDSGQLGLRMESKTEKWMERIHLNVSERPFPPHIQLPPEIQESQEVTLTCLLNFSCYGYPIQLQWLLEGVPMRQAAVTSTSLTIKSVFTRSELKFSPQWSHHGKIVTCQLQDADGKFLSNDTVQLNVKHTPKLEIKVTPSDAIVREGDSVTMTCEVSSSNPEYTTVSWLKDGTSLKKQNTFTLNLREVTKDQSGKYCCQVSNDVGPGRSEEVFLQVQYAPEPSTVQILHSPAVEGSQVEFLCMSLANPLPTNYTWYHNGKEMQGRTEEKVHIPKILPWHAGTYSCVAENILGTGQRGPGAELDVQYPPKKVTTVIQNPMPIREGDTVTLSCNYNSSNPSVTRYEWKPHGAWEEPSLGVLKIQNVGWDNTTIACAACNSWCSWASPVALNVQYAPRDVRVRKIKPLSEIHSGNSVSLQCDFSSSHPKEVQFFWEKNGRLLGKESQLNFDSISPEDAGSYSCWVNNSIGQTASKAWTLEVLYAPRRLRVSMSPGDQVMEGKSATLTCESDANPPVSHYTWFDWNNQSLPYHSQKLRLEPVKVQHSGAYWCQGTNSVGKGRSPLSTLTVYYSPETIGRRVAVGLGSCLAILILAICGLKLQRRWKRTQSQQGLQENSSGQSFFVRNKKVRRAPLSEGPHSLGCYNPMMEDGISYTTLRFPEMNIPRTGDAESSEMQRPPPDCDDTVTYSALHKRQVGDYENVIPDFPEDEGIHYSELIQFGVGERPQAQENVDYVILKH
The experiment in a line: flow cytometry titration on BJAB cells, apparent affinity from median fluorescence against concentration. (In general: A flow cytometer gives signals particle by particle.)
Description: SupT1, Raji, BJAB, and ST486 cells in suspension culture were collected by centrifugation and then re-suspended in ice-cold RPMI+10% FBS medium at a density of 1×10⁶/ml. ScFv or IgG1 at different concentrations were added to the cells. Cells were left on ice for half an hour before being washed with the same complete RPMI medium. […] For IgG1, anti-human-IgG-FITC was added to the cells. The cells were then washed with RPMI medium twice and re-suspended in PBS and subjected to flow cytometry analysis using the FACSCalibur™ (Becton Dickinson, San Jose, Calif.)
The binding characteristics of the two IgGs to cell surface-associated CD22 was further analyzed by using increasing concentrations of both IgGs against BJAB cells in a flow cytometry assay.

A value given as a limit tells only on which side of the number the result lay.

B1: Fab m972 (Fab, V domains shown)
VH: EVQLVQSGGGVVRPGGSLRLPCAASGFTFDDYGMSWVRQAPGKGLEWVSGINWNGGSTGYADSVKGRFTISRDNAKNSLYLQMNSLRAEDTALYHCARGGDDAFDIWGQGTMVTVSS
VL: RIVMTQSPGTLSVSPGETATLSCRASQSFSNMLAWYQQKSGQPPRLLIYGVSTRAAGVPARFSGSGSGTEFTLTISNLQSEDFAVYYCQQYGDWPRYTFGQGTKVERKR
notes: Human Fab from a naive Fab phage library, expressed in E. coli HB2151; also called m972 Fab
By EC50 is commonly meant the midpoint of the concentration-response curve. The low end stands for greater potency, the high end for weaker potency. Molecule B1 displayed an EC50 in assay [1] of 2 nM. In addition, the “fold better binding than m971” value in assay [2] was found to be 10 fold.

B2: IgG1 m972 (antibody, V domains shown)
VH: B1 VH
VL: B1 VL
notes: IgG1 format made by moving the heavy and light chains of the clone into pDR12, expressed in 293 free style cells; also called m972 IgG1; not shown: rest of the human IgG1 heavy chain constant region from vector pDR12
In assay [3], B2 came in with an EC50 below 1 nM. Also, the Kd in assay [4] was around 15 nM.
